Experimental data reported in the DeepSol protein solubility set.

test: soluble on expression in E. coli; label from the status in PepcDB or PDB records

Soluble on expression in E. coli, not soluble:
MGSDKIHHHHHHMAVWNANEMPERDRFPYWREVLCEAYIALNPILEGEQRFKGEVKANLLDCINVTTISSSRQKIHRRRLDISRMPHEVYFLNLQVKGQCRMMQGSREALLEPGDFSLVDSTEPYLNDYCSDDWTQYSFRIPRAMLKPLLKQADKQTAIRFTSAHPIASVAIDYLKSVAQNAEHIGTASTPIANHIVDLVAMAAGVSTTEEDRARGTLRSQLSRSVIQFIGAHAADPTLTPAKAAQHFKISVRYVHRLLEESGETFSRLLLKRRLERCADDLRAEAAISISEIAFRWGFNDLSHFSKTFRHHFGVAPRDYRGQ
MGSDKIHHHHHHMAYPFNHKEFVAMMEQYNLKSNSITIPEHTILNDLVTENRDCVYLLKSGILAGYIDFDNDKIYSIFTSNFFMGYYTIFDNASLVLTYQTLTECELIIYKKKDIEYSLSLFPENFSFQYTIMRTIAKHGYYKSLLQYRDKKDQLAFVFEMLVKILDIPVEDGVAVLPKSISTTVIKNYCTLSKAFFYSQLKELKEAGIISKVKLQWRINMEALSEKNNSIN
MGSDKIHHHHHHMCRWLAYSGRPIFLDSLVTQPSHSLVAQSLHSQLNVSSAGVLLSTNGDGFGIGWYHKRPEPGVFKDDKPAWHDENLKNLCHQVKSHIFFAHIRATTTGDVQRTNCHPFQYKNWLFQHNGHVSHFDKIRRELQLEIAPELYPHLRGTTDSETFFLLALTYGLMEQPKQAMQKMVRRVITALEGVDKAGVLNLSCALSDGEKLFILRFAHNEAAMTQFYSADTDCFHEFNGQCNPIPNGSLVVVSEPLDKASDKWTSIPTNTFTSIIKNRVHSEVFL
MGSDKIHHHHHHMDDGYIAEFALYRSLMKNLPWDTYQLFIDVARNGGLTGAVQSTGLSAATLGRRMVELEQKLGRILFHRAQTGYTLTVDGRALLDHLKSFEAAERGIDLWRQQTSQPALVRVTAGTWISWLIAQNLPKLCRSNDRFRLDLHITEERAALAHRETDIGIRAFEPQESNLARVPLGEVAYAAYRHRLADELEGQPWIAVAQDAAISAYLKWPHQHKAEQILITVNRPRSLKDMAVSGMGLAVLPCFVGDSHPQLQRVGDEITELRHRQWLVTNNDDRHRSEIRDCAGRLVTLMRDFSDAFAGRR
MGSDKIHHHHHHMDDTTPPETPAVDDLLQRIAGAYDTLPRQLKRIASYIDEHRSSVMMDRTSDIAQRCGVHPSAVVRFAQRFGFSGFSDLQAVFKDAYTGQNPTVQSYQQRIRSLIDGEAGPMTGGAVARQFIDASRAGLDELAAGLDDDQFDAAVTMLERAENIYVVGVRRSFPVASYIVYALQHTAKRVHLVSGLGGMYREQIRSVKKGDVVIAISFAPYGKETQYCLRAARHNHAQTLVVTDSRLSPLARDASAHLLVKEGSAFAFRSLTSTICLCQALFIALAYRLELNVEEVKDIGGYDD
MGSDKIHHHHHHMDGEGMSVGHYENFPVGSLILPRRLRKPVHAVYAFARTADDMADEGSMPSEARLSGLEGLRRELDVLASGGRSAHPLIARLDAEAVVPFGLDLQPFYDLLSAFSQDVVKTRYAHFGDLTDYCRRSANPVGRIMLALYGKTDAVCVAQSDGICTALQLVNFWQDVAVDWQKGRVYIPQDDLLKFGVSEEQIAAGRADAAFQRLMAYECRRAFRMLKAGSPLARELKGRIGLELRMIVLGAQLILQKLDACRYDVFAQRPVLDKKDWLIMLKRALWK
MGSDKIHHHHHHMDGRGLKAYATPIRKFWVVLLQQRRMAMAENEKYLDWAREVLHTEAEGLREIAAELDENFVLAADALLHCKGRVVITGMGKSGHIGRKMAATMASTGTPAFFVHPAEAAHGDLGMIVDNDVVAAISNSGESDEITAIIPALKRKDITLVCITARPDSTMARHADIHITASVSQEACPLGLAPTTSTTAVMALGDALAVVLLRARAFTPDDFALIHPAGSLGKRLLLRVADIMHKGGGLPAVRLGTPLKGAIVSMSEKGLGMLAVTDGQGCLKGVFTDGDLRRLFQECDNFTGLSIDEVMHTHPKTISAERLATEALKVMQANHVNGLLVTDADGVLTGALNMHDLLAARIV
MGSDKIHHHHHHMDIKQLRYFVEVARREHISDAALELNIAQSAISRQITQLEKELGVTLFKRSGRNIILTVEGRQLLSQATQILELMDKTIHSFQQHVSHNQQTIYIGYEESDASQMILPLIQTFEQQSNSTMIPQLTKHDKLLDQILSNQLDLAITEFTPVLERETHLRVMPLFEENYYMYVPKSHPLAMTVHPPLSQFTNQSLYCLEPMTSSIKSKLIEKTKAQVRMISDMKLAQHILSHNKGFIISSQNSLLYDHVNWTKIPLNHTELKRMLCVVMRKDNKKNDINIAWNLICTLLNKSTIY
MGSDKIHHHHHHMDILRKVAEIHGTPTYVYFEETLRKRSRLVKEVFEGVNLLPTFAVKANNNPVLLKILREEGFGMDVVTKGELLAAKLAGVPSHTVVWNGNGKSRDQMEHFLREDVRIVNVDSFEEMEIWRELNPEGVEYFIRVNPEVDAKTHPHISTGLKKHKFGIPLEDLDSFMERFRSMNIRGLHVHIGSQITRVEPFVEAFSKVVRASERYGFEEINIGGGWGINYSGEELDLSSYREKVVPDLKRFKRVIVEIGRYIVAPSGYLLLRVVLVKRRHNKAFVVVDGGMNVLIRPALYSAYHRIFVLGKQGKEMRADVVGPLCESGDVIAYDRELPEVEPGDIIAVENAGAYGYTMSNNYNSTTRPAEVLVRENGRISLIRRRETEMDIFKDVVM
MGSDKIHHHHHHMDILTGKCSDRFMAHVLKRRDQEAVRWYVLTLPTAGGGRDRISPSKGLDAELSRRERRGEALFEYFSPSYVEARKVGGKMVNTRQPLLYNYVFVHASEDEIFRLKRTLPLYNFLPRVSSGGRSYFPYLSDREMDTLRWVAASYSNELPVYVPDSGRLLKGDRVRITSGPFTDMEAEVVVQPGGGHKDVMVRILDCLWVPLFEVRAGEYELIELNTGGKHVYTHLDNDRLSEGLHDALGRYHASGVVVDEDACLAREVLRGYASLRAETDVIRCKLYSLLLPAYLLLGESDEFDRLRSTMRSMLPVIKAGQSRALLLVTLYGCTDSSLYQRMAHELVDPWQEEASPKKSKTVLIRRLRDYDRWLKHNE
MGSDKIHHHHHHMDISIGDDSNGAVISIVGSHLDKLNLNGTAILLERYDDSPTHFGSAFLFPYANRVRNGEFTLDGKRYFLPKDDENNSIHGLVLSKKFDLVEKIENSVTMRYIMADECYPSPIEIFITHTVSEGKYTCRVKASNRGLTRAPVSAGFHPYFLYNGRWAIKKPRDTWKLEYDGQFPTGKMDKFLFEEDSFMHEFDNQFFADEDIVVDMGSHMIQIERENMPFFVIYNGKYSGGKSVAIEPMMSAVDAFNNGIGLRIVNPGESIEFAYSVEIRE
MGSDKIHHHHHHMDIYEKYGLKPVINADGKMTILGVSQVSDQVAAAQKQGAQNFFEMAELTVQTGRYLADLIGSEDALIVNSASAGIAQVLAGIIGRGNAYHVTHPYTTQITQREVIMPLGHDVDYGAPVDVMLAVAGAQPVLAGYANRCTAEQLAMQITPQTVAILYIKSHHTVQKSMLTIADALQVAHDHHLPLVLDAAAEGDLRRYLQLGVDVVIYSGAKAISGPASGLVLGRQTYVEWARQQNYGIGRAMKIGKENILGLVAAVEQYLTTGPESGASMKARLAPFIAELQTLPNVQVEMVQDGAGRDIFRASVRIAEAAKICQALRQGRPAIYPREYRVNEGLIEFDIRALTSAEMTQIVERLRTIIEEESTCN
MGSDKIHHHHHHMDKEEQYLLFALSTPMEVLYIGNEPSHTSPAMYTGIPAVDLSDSWGIDNREDLIQTIYRMTDDGHAADLAPFYIRWFTLSPRQWREFTAQFGEQGQIYARFVAETALCCGRGGIKAWDYVRMGFLCRMGVLNQWLTEEESLWLQSRIYARAYYFYDGWTQYFAAYSLGRLYWQAKGDTIQAYFAHLKYDASGARMFNELASTTESYYAQLPWRPLNEQPTCPETLKGVSDL
MGSDKIHHHHHHMDKNPLVYEYSIGKRKPYDYDYGNRQGNQNAGCPFCDVRHLVNIFEKDGDKIWLKNKYPTLQDTDQTILIESSDHQGDISTYTREDNQELMKFALKCFQKMYNSGRYKSVLWYKNFGPKSDGSLTHPHMQIVGLYHKDGYHDIGPDNFKGFEVGKSGSVEMNLSAYPVQGYQEVNIITHDNTNLGTWADLIQKGTQYVRSVLSHGVDSYNLFFYPINDGQGTCCKIIPRFYASPYFVGYKISQVDDSDTLKWEAERLKGFVNGGILH
MGSDKIHHHHHHMDLASKYFNGVNWRYIDHSSGLEPMQSFAFDDTFCESVGKDISDNVVRTWIHQHTVILGIHDSRLPFLKDGIDYLTNEIGYNAIVRNSGGLGVVLDQGVLNISLMFKGQTETTIDEAFTVMYLLISKMFEDENVDIDTMEIEHSYCPGKFDLSIDGKKFAGISQRRVRGGIAVQIYLCVEGSGSERALMMQTFYEHALKGEVTKFKYPEIEPSCMASLETLLNKTITVQDVMFLLLYAIKDLGGVLNMTPITQEEWQRYDTYFDKMIERNKKMIDQMQ
MGSDKIHHHHHHMDLITKQDGTTLHYSTMGQGYPVVLVHTAFDNYAVFNDLAKVLAKSFQVVLIDLRGHGYSDKPRNIEFYDFADDIKFLLDAIYIDEAAFIGHEMGALIAADMSVRNPGYISSITLVNPTSIEGELPEERLFRKYAHKIRNWEDDKQEKFLDKRRYYKARKMNKFLKHVVDTNSISTKEEIQAVKDVFKSEGIADVFKHVQVPTLIVAGEHGERTTTLEAKEVADLIQHCEFNVYQHSSAYPFVEEQAQFTQETTNFIQQHAPK
MGSDKIHHHHHHMDMIVTSKKSSRNANSGCAIHCNDCSMSELCIPFTLNANELEELDNIIERKKPVQKGDKLFQSGDGLKSLYAIRSGTIKSYTITQQGDEQITGFHLAGDVIGFDAIHKQAHQSFAEALETSMICEIPFDTLDSLAGTMPKLRQQIMRLMSHEIISDQEMILLLSKKNAEERLAAFIAKLANRFANRGFSPNEFRLSMTRGDIGNYLGLTVETISRLLGRFQKAQMIAVNGKYITIVDHQALNTLADHTEQ
MGSDKIHHHHHHMDNLVDVFCDVDDFCAVFMPQWKKQCVTDGTRKRQRSSRMDMSEIMTIIILFHTSHHRDFKNYYTGYLARFFKSDFPHLLSYTRFLELMPTAVVPLCSYFSSIRSLPTGIEFVDSTSVKVCHNLRIPRHKTLSGLARRGKGTMGWFYGFKLHLIVNHKGGIVAAKITPANTHDTKPVSGMVVNAMDKLYADKGYISKALASELLEQGVTLVNNVRKNMKKKVLSLWDRAMLSRRFIIETINDQLKNISQIEHSRHRSVHGFMLNMIGGLIAYQLKESKPQLNITDVDFNAISVMA
MGSDKIHHHHHHMDQQKKIQILKDLVNIDSTNGHEEQVANYLQKLLAEHGIESEKVQYDLDRASLVSEIGSSNEKVLAFSGHMDVVDAGDVSKWKFPPFEATEHEGKLYGRGATDMKSGLAAMVIAMIELHEEKQKLNGKIRLLATVGEEIGELGAEQLTQKGYADDLDGLIIGEPSGHRIVYAHKGSINYTVKSTGKNAHSSMPEFGVNAIDNLLLFYNEVEKFVKSIDATNEILGDFIHNVTVIDGGNQVNSIPEKAQLQGNIRSIPEMDNETVKQVLVKIINKLNKQENVNLELIFDYDKQPVFSDKNSDLVHIAKSVASDIVKEEIPLLGISGTTDAAEFTKAKKEFPVIIFGPGNETPHQVNENVSIGNYLEMVDVYKRIATEFLS
